Laboratory results reported in patent publication US20090324590A1.

Biological target: recombinant wild type myostatin
Experiment: cell-based or functional assay

myostatin antagonist 300 (amino acids 267-300 of bovine myostatin with N-terminal and C-terminal tags) (peptide)
p-FoxO1 expression (Western blot, normalised to total FoxO1) in C2C12 myotubes; myostatin 6 ug/mL with 300 at 30, 60, 90 or 120 ug/mL for 24 hours; concentration of 300 giving maximal rescue: 90 µg/mL
